In assay [1] the target is purified human glycophorin A protein (Sigma, cat # G5017) (human) (UniProt P02724). Nature of the assay: ELISA, native hGPA. (In an ELISA, binding on a coated surface is turned into a signal by an enzyme label.)
Assay [2] concerns the target human glycophorin A on human red blood cells or red blood cell membranes (human) (UniProt P02724). Nature of the assay: ELISA, Fab on coated human RBC membranes.
Assay [3] deals with recombinant human GPA ectodomain (human) (UniProt P02724). Nature of the assay: ELISA, rec hGPA ectodomain.
In assay [4] the target is T1, GP5-10 alanine scanning peptide (human).
T1 sequence (peptide, N-terminal biotin): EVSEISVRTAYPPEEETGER
Kind of assay: alanine scanning peptide ELISA.

Assay [5] deals with T2, GP5-12 alanine scanning peptide (human).
T2 sequence (peptide, N-terminal biotin): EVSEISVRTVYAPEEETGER
Nature of the assay: alanine scanning peptide ELISA.

In assay [6] the target is T3, GP5-15 alanine scanning peptide (human).
T3 sequence (peptide, N-terminal biotin): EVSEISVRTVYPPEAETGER
Nature of the assay: alanine scanning peptide ELISA.

Assay [7] addresses human glycophorin A on human red blood cells or red blood cell membranes (human) (UniProt P02724). Kind of assay: scFv 7 ug/ml on intact human RBC, unbound scFv by ELISA; pre-dilution.
For assay [8] the target is unchanged. Kind of assay: scFv on intact human RBC, unbound scFv by ELISA; 0 min after 200-fold dilution.
For assay [9] the target is unchanged. Kind of assay: scFv on intact human RBC, unbound scFv by ELISA; 5 min after 200-fold dilution.
For assay [10] the target is unchanged. Kind of assay: scFv on intact human RBC, unbound scFv by ELISA; 20 min after 200-fold dilution.
Assay [11] has the same target. Nature of the assay: scFv on intact human RBC, unbound scFv by ELISA; 60 min after 200-fold dilution.
Assay [12] shares this target. Kind of assay: scFv on intact human RBC, unbound scFv by ELISA; 120 min after 200-fold dilution.

B1: TPP-5321 (Fab, V domains shown)
VH: EVQLVQSGAEVKKPGASVKVSCKASGYTFTTYTIHWVRQAPGQGLEWIGIINPSSDYTRYNPKFKDRVTLTTDKSTSTAYMELRSLRSDDTAVYYCQTGTRDYWGQGTTVTVSS
VL: DIQLTQSPSFLSASVGDRVTITCSAASSVSYIYWFQQKPGKAPKLLIYSTSTLPSGVPSRFSGSGSGTEYTLTISSLQPEDFATYYCHQRNSFPFTFGQGTKLEIKR
Turning to B1, in [1], the binding by ELISA relative to parental came out at 0.06.

B2: TPP-5325 (Fab, V domains shown)
VH: EVQLVQSGAEVKKPGASVKVSCKASGYTFTTYTIHWVRQAPGQGLEWIGYINPSSDYTSYNPKFKDRVTLTTDKSTSTAYMELRSLRSDDTAVYYCQTGTRDYWGQGTTVTVSS
VL: DIQLTQSPSFLSASVGDRVTITCSAASSVSYIYWFQQKPGKAPKLLIYSTSTLPSGVPSRFSGSGSGTEYTLTISSLQPEDFATYYCHQRNSFPFTFGQGTKLEIKR
Take B2: the binding by ELISA relative to parental in assay [1] worked out at 0.07.

B3: TPP-5339, Hu6C12-24 Fab variant VH: (E1Q, I48M, L70M, T72R, K74T, R84S, D89E, Q97A, T98R) (Fab, V domains shown)
VH: QVQLVQSGAEVKKPGASVKVSCKASGYTFTTYTIHWVRQAPGQGLEWMGYINPSSDYTRYNPKFKDRVTMTRDTSTSTAYMELSSLRSEDTAVYYCARGTRDYWGQGTTVTVSS
VL: DIQLTQSPSFLSASVGDRVTITCSAASSVSYIYWFQQKPGKAPKLLIYSTSTLPSGVPSRFSGSGSGTEYTLTISSLQPEDFATYYCHQRNSFPFTFGQGTKLEIKR
For B3, the binding in ELISA relative to parental Fab (relative to parental Fab) in assay [2] came out at 0.3.

B4: TPP-5349 (Fab, V domains shown)
VH: EVQLVQSGAEVKKPGASVKVSCKASGYTFTTYTIHWVRQAPGQGLEWIGYINPSSDYTRYNPKFKDRVTLTTDKSTSTAYMELRSLRSDDTAVYYCQTGTRDYWGQGTTVTVSS
VL: DIQLTQSPSFLSASVGDRVTITCSAASSVSYIYWFQQKPGKAPKLLIYSASTLPSGVPSRFSGSGSGTEYTLTISSLQPEDFATYYCHQRNSFPFTFGQGTKLEIKR
Regarding B4, the binding by ELISA relative to parental in assay [3] was 0.09.

B5: TPP-5353 (Fab, V domains shown)
VH: EVQLVQSGAEVKKPGASVKVSCKASGYTFTTYTIHWVRQAPGQGLEWIGYINPSSDYTRYNPKFKDRVTLTTDKSTSTAYMELRSLRSDDTAVYYCQTGTRDYWGQGTTVTVSS
VL: DIQLTQSPSFLSASVGDRVTITCSAASSVSYIYWFQQKPGKAPKLLIYSTSTLPSGVPSRFSGSGSGTEYTLTISSLQPEDFATYYCHQLNSFPFTFGQGTKLEIKR
For B5, in [1], the binding by ELISA relative to parental turned out to be 0.04.

B6: TPP-5906 Fab (Fab, V domains shown)
VH: EVQLVQSGAEVKKPGASVKVSCKASGYTFTTYTIHWVRQAPGQGLEWMGYINPSSGYTRYNPKFKGRVTMTRDKSTSTAYMELRSLRSDDTAVYYCQTGTRDYWGQGTTVTVSS
VL: DIQLTQSPSFLSASVGDRVTITCRASSSVSYIYWFQQKPGKAPKLLIYATSTLQSGVPSRFSGSGSGTEYTLTISSLQPEDFATYYCHQRNSFPYTFGQGTKLEIKR
As for B6, the percent reduction of binding in [4], in assay [5] and in assay [6] was more than 95% throughout.

B7: TPP-5346 (Fab, V domains shown)
VH: EVQLVQSGAEVKKPGASVKVSCKASGYTFTTYTIHWVRQAPGQGLEWIGYINPSSDYTRYNPKFKDRVTLTTDKSTSTAYMELRSLRSDDTAVYYCQTGTRDYWGQGTTVTVSS
VL: DIQLTQSPSFLSASVGDRVTITCSAASSVSYIAWFQQKPGKAPKLLIYSTSTLPSGVPSRFSGSGSGTEYTLTISSLQPEDFATYYCHQRNSFPFTFGQGTKLEIKR
With B7, in [1], the binding by ELISA relative to parental came out at 0.04.

B8: TPP-5336 (Fab, V domains shown)
VH: EVQLVQSGAEVKKPGASVKVSCKASGYTFTTYTIHWVRQAPGQGLEWIGYINPSSDYTRYNPKFKDRVTLTTDKSTSTAYMELRSLRSDDTAVYYCQRGTRDYWGQGTTVTVSS
VL: DIQLTQSPSFLSASVGDRVTITCSAASSVSYIYWFQQKPGKAPKLLIYSTSTLPSGVPSRFSGSGSGTEYTLTISSLQPEDFATYYCHQRNSFPFTFGQGTKLEIKR
On to B8, for which the binding by ELISA relative to parental in assay [1] worked out at 0.06.

B9: TPP-5906 parental scFv (humanized and germlined 6C12) (scFv)
scFv: DIQLTQSPSFLSASVGDRVTITCRASSSVSYIYWFQQKPGKAPKLLIYATSTLQSGVPSRFSGSGSGTEYTLTISSLQPEDFATYYCHQRNSFPYTFGQGTKLEIKGGGGSGGGGSGGGGSGGGGSEVQLVQSGAEVKKPGASVKVSCKASGYTFTTYTIHWVRQAPGQGLEWMGYINPSSGYTRYNPKFKGRVTMTRDKSTSTAYMELRSLRSDDTAVYYCQTGTRDYWGQGTTVTVSS
With B9, the percentage of input scFv antibody bound in assay [7] worked out at 100%; in assay [8] it was 90%; in assay [9], 16%; in [10] it was 0%; in assay [11], 3%; in [12], 0%.

The record behind these values is patent US20190359687A1.
